B1: CPEB3 Ribozyme (parent)
chain: GGGGGCCACAGCAGAAGCGUUCACGUCGCGGCCCCUGUCAGAUUCUGGUGAAUCUGCGAAUUCUGCUGU

Variants of: B1
Test: self-cleavage, relative activity (ratio to wild type); higher = more cleavage; co-transcriptional

Variant	self-cleavage
GGGGGCCACAGCAGAAGCGUUCCCGCCGCGGCCCCUGUCAGAUUCUGGUGAAUCUGCGAAUUCUGCUGU [A23C U26C]	0.966
GGGGGCCACAGCAGAAGCGUUCCCGUCGCGGCCCCAGUCAGAUUCUGGUGAAUCUGCGAAUUCUGCUGU [A23C U36A]	0.335
GGGGGCCACAGCAGAAGCGUUCCCGUCGCGGCCCCGGUCAGAUUCUGGUGAAUCUGCGAAUUCUGCUGU [A23C U36G]	0.326
GGGGGCCACAGCAGAAGCGUUCCCGUCGCGGCCCCUGACAGAUUCUGGUGAAUCUGCGAAUUCUGCUGU [A23C U38A]	0.75
GGGGGCCACAGCAGAAGCGUUCCCGUCGCGGCCCCUGCCAGAUUCUGGUGAAUCUGCGAAUUCUGCUGU [A23C U38C]	0.85
GGGGGCCACAGCAGAAGCGUUCCCGUCGCGGCCCCUGUCAGACUCUGGUGAAUCUGCGAAUUCUGCUGU [A23C U43C]	0.89
GGGGGCCACAGCAGAAGCGUUCCCGUCGCGGCCCCUGUCAGAUACUGGUGAAUCUGCGAAUUCUGCUGU [A23C U44A]	0.936
GGGGGCCACAGCAGAAGCGUUCCCGUCGCGGCCCCUGUCAGAUGCUGGUGAAUCUGCGAAUUCUGCUGU [A23C U44G]	0.946
GGGGGCCACAGCAGAAGCGUUCCCGUCGCGGCCCCUGUCAGAUUCCGGUGAAUCUGCGAAUUCUGCUGU [A23C U46C]	0.959
GGGGGCCACAGCAGAAGCGUUCCCGUCGCGGCCCCUGUCAGAUUCGGGUGAAUCUGCGAAUUCUGCUGU [A23C U46G]	0.962
GGGGGCCACAGCAGAAGCGUUCCCGUCGCGGCCCCUGUCAGAUUCUGGGGAAUCUGCGAAUUCUGCUGU [A23C U49G]	0.916
GGGGGCCACAGCAGAAGCGUUCCCGUCGCGGCCCCUGUCAGAUUCUGGUGAAACUGCGAAUUCUGCUGU [A23C U53A]	0.89
GGGGGCCACAGCAGAAGCGUUCCCGUCGCGGCCCCUGUCAGAUUCUGGUGAAUCAGCGAAUUCUGCUGU [A23C U55A]	0.866
GGGGGCCACAGCAGAAGCGUUCCCGUCGCGGCCCCUGUCAGAUUCUGGUGAAUCGGCGAAUUCUGCUGU [A23C U55G]	0.708
GGGGGCCACAGCAGAAGCGUUCCCGUCGCGGCCCCUGUCAGAUUCUGGUGAAUCUGCGAACUCUGCUGU [A23C U61C]	0.689
GGGGGCCACAGCAGAAGCGUUCCCGUCGCGGCCCCUGUCAGAUUCUGGUGAAUCUGCGAAUACUGCUGU [A23C U62A]	0.755
GGGGGCCACAGCAGAAGCGUUCCCGUCGCGGCCCCUGUCAGAUUCUGGUGAAUCUGCGAAUUCAGCUGU [A23C U64A]	0.833
GGGGGCCACAGCAGAAGCGUUCCCGUCGCGGCCCCUGUCAGAUUCUGGUGAAUCUGCGAAUUCUGCGGU [A23C U67G]	0.968
GGGGGCCACAGCAGAAGCGUUCCCGUCGCGGCCCCUGUCAGAUUCUGGUGAAUCUGCGAAUUCUGCUGG [A23C U69G]	1.02
GGGGGCCACAGCAGAAGCGUUCGCGUCGCGGCCCCUGUCUGAUUCUGGUGAAUCUGCGAAUUCUGCUGU [A23G A40U]	0.665

Variant	self-cleavage
GGGGGCCACAGCAGAAGCGUUCGCGUCGCGGCCCCUGUCAGCUUCUGGUGAAUCUGCGAAUUCUGCUGU [A23G A42C]	0.911
GGGGGCCACAGCAGAAGCGUUCGCGUCGCGGCCCCUGUCAGGUUCUGGUGAAUCUGCGAAUUCUGCUGU [A23G A42G]	0.867
GGGGGCCACAGCAGAAGCGUUCGCGUCGCGGCCCCUGUCAGUUUCUGGUGAAUCUGCGAAUUCUGCUGU [A23G A42U]	0.862
GGGGGCCACAGCAGAAGCGUUCGCGUCGCGGCCCCUGUCAGAUUCUGGUGCAUCUGCGAAUUCUGCUGU [A23G A51C]	0.914
GGGGGCCACAGCAGAAGCGUUCGCGUCGCGGCCCCUGUCAGAUUCUGGUGGAUCUGCGAAUUCUGCUGU [A23G A51G]	0.962
GGGGGCCACAGCAGAAGCGUUCGCGUCGCGGCCCCUGUCAGAUUCUGGUGAAUCUGCGGAUUCUGCUGU [A23G A59G]	1.01
GGGGGCCACAGCAGAAGCGUUCGCGUGGCGGCCCCUGUCAGAUUCUGGUGAAUCUGCGAAUUCUGCUGU [A23G C27G]	0.175
GGGGGCCACAGCAGAAGCGUUCGCGUCGUGGCCCCUGUCAGAUUCUGGUGAAUCUGCGAAUUCUGCUGU [A23G C29U]	0.217
GGGGGCCACAGCAGAAGCGUUCGCGUCGCGGGCCCUGUCAGAUUCUGGUGAAUCUGCGAAUUCUGCUGU [A23G C32G]	0.337
GGGGGCCACAGCAGAAGCGUUCGCGUCGCGGCCGCUGUCAGAUUCUGGUGAAUCUGCGAAUUCUGCUGU [A23G C34G]	0.243
GGGGGCCACAGCAGAAGCGUUCGCGUCGCGGCCCUUGUCAGAUUCUGGUGAAUCUGCGAAUUCUGCUGU [A23G C35U]	0.935
GGGGGCCACAGCAGAAGCGUUCGCGUCGCGGCCCCUGUUAGAUUCUGGUGAAUCUGCGAAUUCUGCUGU [A23G C39U]	0.86
GGGGGCCACAGCAGAAGCGUUCGCGUCGCGGCCCCUGUCAGAUUAUGGUGAAUCUGCGAAUUCUGCUGU [A23G C45A]	0.955
GGGGGCCACAGCAGAAGCGUUCGCGUCGCGGCCCCUGUCAGAUUCUGGUGAAUCUGAGAAUUCUGCUGU [A23G C57A]	0.394
GGGGGCCACAGCAGAAGCGUUCGCCUCGCGGCCCCUGUCAGAUUCUGGUGAAUCUGCGAAUUCUGCUGU [A23G G25C]	0.169
GGGGGCCACAGCAGAAGCGUUCGCGUCACGGCCCCUGUCAGAUUCUGGUGAAUCUGCGAAUUCUGCUGU [A23G G28A]	0.136
GGGGGCCACAGCAGAAGCGUUCGCGUCCCGGCCCCUGUCAGAUUCUGGUGAAUCUGCGAAUUCUGCUGU [A23G G28C]	0.13
GGGGGCCACAGCAGAAGCGUUCGCGUCGCGACCCCUGUCAGAUUCUGGUGAAUCUGCGAAUUCUGCUGU [A23G G31A]	0.781
GGGGGCCACAGCAGAAGCGUUCGCGUCGCGUCCCCUGUCAGAUUCUGGUGAAUCUGCGAAUUCUGCUGU [A23G G31U]	0.583
